We go through two molecules from publication PMC4894398, “Efficient Demyristoylase Activity of SIRT2 Revealed by Kinetic and Structural Studies” (Scientific Reports, 2015).

No end group written: not given here.

The target in test [1] is SIRT2 (residues 38–356 of the full-length human SIRT2) (human) (UniProt Q8IXJ6).
Test [2] deals with T1, SIRT2 (residues 38–356 of the full-length human SIRT2) (human, UniProt Q8IXJ6 38-356).
T1 construct: NAD-dependent protein deacylase sirtuin-2 (SIRT2), human, residues 38-356 of the full-length protein; Cloned into pET28b(+) with an N-terminal hexahistidine and sumo tag; The tag was cut off by Ulp1 and removed on a second Ni-NTA column; source: E. coli BL21 (DE3), purified (Ni-NTA, Ulp1 cleavage, second Ni-NTA, Superdex G200); not shown: His6, N-terminal, cleaved; SUMO, N-terminal, cleaved
T1 sequence (looked up): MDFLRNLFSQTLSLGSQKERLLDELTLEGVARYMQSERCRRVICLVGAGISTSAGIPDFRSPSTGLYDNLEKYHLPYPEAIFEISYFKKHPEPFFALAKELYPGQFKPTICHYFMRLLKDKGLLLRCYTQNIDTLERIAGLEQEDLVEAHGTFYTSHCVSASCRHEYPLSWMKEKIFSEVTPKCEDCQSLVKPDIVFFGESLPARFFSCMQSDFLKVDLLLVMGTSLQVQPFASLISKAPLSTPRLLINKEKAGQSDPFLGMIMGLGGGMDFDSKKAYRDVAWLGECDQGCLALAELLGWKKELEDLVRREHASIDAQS
As to the kind of experiment: crystal structure; 10 mg/mL SIRT2 in 20 mM Tris, 50 mM NaCl, pH 7.5 preincubated on ice with 10 mM BHJH-TM1 for about 1 h; hanging drop, 25% PEG 3350, 0.1 M Hepes pH 7.5; 2.1 Å, two subunits in the asymmetric unit. The conditions noted are these: both partners purified.

Turning to “H3K9 myristoyl peptide (histone H3 Lys9 peptide bearing a myristoyl group)”, the Km of demyristoylation of the H3K9 myristoyl peptide by SIRT2 (HPLC kinetics, 0.2 μM SIRT2, 1 mM NAD, 37°C, peptide 0.25-32 μM) in test [1] turned out to be 0.24 µM.

B1: BHJH-TM1 thiomyristoyl peptide (PKK(TMy)TG) (peptide)
peptide: PKK(thiomyristoyl)TG
notes: also called Myr Peptide (PKK(Tmy)TG)
In the case of B1, in test [2], the binding result is on record as “binds”.
